Earlier results in article PMC9794804.

Experiments:
[1] = target: IL-6R (UniProt P08887)
[2] = target: TREM-1 (UniProt Q9NP99)
[3] = target: TLR4 (UniProt O00206)
Sequence of TLR4 (O00206 24-631): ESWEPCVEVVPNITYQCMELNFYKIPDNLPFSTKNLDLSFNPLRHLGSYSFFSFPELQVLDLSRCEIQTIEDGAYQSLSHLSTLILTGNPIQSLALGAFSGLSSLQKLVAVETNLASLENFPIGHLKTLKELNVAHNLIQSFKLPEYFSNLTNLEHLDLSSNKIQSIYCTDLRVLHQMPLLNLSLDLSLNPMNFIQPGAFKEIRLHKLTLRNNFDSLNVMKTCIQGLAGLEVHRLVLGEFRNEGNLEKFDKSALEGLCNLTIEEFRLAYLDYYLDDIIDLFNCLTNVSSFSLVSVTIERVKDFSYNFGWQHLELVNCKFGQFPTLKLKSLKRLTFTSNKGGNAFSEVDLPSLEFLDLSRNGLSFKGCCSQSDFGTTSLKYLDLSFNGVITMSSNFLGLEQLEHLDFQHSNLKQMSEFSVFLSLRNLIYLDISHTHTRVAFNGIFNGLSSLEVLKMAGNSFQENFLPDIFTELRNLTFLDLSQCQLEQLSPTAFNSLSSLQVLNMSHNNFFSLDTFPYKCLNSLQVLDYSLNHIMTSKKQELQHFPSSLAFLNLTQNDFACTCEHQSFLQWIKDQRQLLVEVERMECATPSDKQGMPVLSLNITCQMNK

Sequence of eCIRP (Q14011 whole entry): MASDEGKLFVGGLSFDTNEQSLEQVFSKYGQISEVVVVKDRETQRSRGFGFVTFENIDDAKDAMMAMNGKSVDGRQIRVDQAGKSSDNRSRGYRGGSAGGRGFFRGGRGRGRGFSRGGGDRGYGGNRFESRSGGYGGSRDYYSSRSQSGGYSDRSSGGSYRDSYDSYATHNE
Sequence of TREM-1 (Q9NP99 21-205): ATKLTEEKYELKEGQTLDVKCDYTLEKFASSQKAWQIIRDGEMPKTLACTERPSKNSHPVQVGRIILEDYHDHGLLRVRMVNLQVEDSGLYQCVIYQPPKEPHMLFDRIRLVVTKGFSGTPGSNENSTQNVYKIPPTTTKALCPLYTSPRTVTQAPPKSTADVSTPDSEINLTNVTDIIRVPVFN
Sequence of IL-6R (P08887 20-365): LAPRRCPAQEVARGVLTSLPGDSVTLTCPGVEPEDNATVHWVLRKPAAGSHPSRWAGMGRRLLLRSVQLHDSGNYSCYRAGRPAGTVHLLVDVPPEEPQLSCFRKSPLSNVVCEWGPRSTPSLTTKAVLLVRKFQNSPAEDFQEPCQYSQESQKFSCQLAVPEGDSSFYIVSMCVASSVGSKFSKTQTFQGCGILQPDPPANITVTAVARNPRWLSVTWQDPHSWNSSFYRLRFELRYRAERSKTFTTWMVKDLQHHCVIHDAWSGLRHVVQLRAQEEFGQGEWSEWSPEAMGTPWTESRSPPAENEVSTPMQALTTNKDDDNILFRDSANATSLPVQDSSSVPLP

eCIRP (from UniProt Q14011)
Kd [1]: 98 nM
Kd [2]: 117 nM
Kd [3]: 617 nM
